Laboratory results as given in the supplement of paper PMC9170038.

Tested on: MS2 coat protein
Assay: apparent KD of MS2 coat protein; designed switch direction (-1 OFF switch, 1 ON switch): 1; higher = weaker reporter binding
Procedure, shortened: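 Designed RNA switches with common flanks were transcribed on Illumina chips by stalled E. coli RNA polymerase and titrated with SNAP-549-labelled MS2 coat protein, from 0.7 or 1.5 nM doubling to 3 µM, in Tris-HCl pH 7.5 buffer with KCl, MgCl2, BSA, DTT, tRNA and Tween-20. Steps lasted 0.8–1.5 h (lowest) to 10–20 min (highest). Titrations ran without input, with 200 uM small-molecule ligand, or with an oligonucleotide input. Normalised cluster fluorescence was curve-fitted, and apparent KD is the per-design median over clusters.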

[1] = input ligand: microRNA oligo, concentration not stated
[2] = Eterna round: R95, input ligand: FMN 200 uM
[3] = Eterna round: R95, input ligand: microRNA oligo, concentration not stated
[4] = Eterna round: R95, input ligand: none

Sequence	apparent KD of MS2 coat protein (input ligand: FMN 200 uM) [nM]	apparent KD of MS2 coat protein [1] [nM]	apparent KD of MS2 coat protein (input ligand: none) [nM]	apparent KD of MS2 coat protein [2] [nM]	apparent KD of MS2 coat protein [3] [nM]	apparent KD of MS2 coat protein [4] [nM]
GGAGGACAUGAGGAUCACCCAUGUGGAUGGGCGCUAGGAUAUGCGUGCGGGAAGAGUGGAGCAGAAGGAGUGGGUU [JR_SS1_Sub045] (Eterna round: R96, puzzle: Same State 1)	66.8	41.9	55.6			
UUGAAGAAUUAAGGAUAUUGAGUACAUAUGUAAAACAUGAGGAUCACCCAUGUGGGUUGCGGUAUCGAGAAGGUAAAAUAAUAG [Mat - same State NG 2 - JL mod - D71] (Eterna round: R96, puzzle: Same State NG 2)	74.5	79.6	81.6			
GCUAGAAAUAAAGCCAACAUGAGGAUCACCCAUGUAUGUUGGUAGGAUAUCGUAUGCAAAGCAUACGAGAAGGGCCAAACUAGC [Mat - Same State NG 3 - JL Mod - D21] (Eterna round: R96, puzzle: Same State NG 3)	72.3	65.4	122			
AUUAUACAUGAGGAUCACCCAUGUAAUUAAUUAAUUAAGAUCUAGGAUAUCAGCUCGUUUAGAGCUGAGAAGGAGAUCACAUGU [SSNG3/20-C3] (Eterna round: R96, puzzle: Same State NG 3)		23.3				
AACAUGAGGACAUGAACAUGAGGAUCACCCAUGUAUGUUUAUAAGGAUAUAUGAGGAGGAGGAGAAUAGAAGGUAUAGGGAGGG [This also seems to work] (Eterna round: R96, puzzle: Same State NG 3)	45	35.5	43.2			
AACAAUCUAUCUGAGGAUAUCAUGAAAUAUACAUGAGGAUCACCCAUGUGCAGGAAAACUGCAUAUGAGAAGGCAGAUAGAUUGA [salish99_ss2_r3_034] (puzzle: Same State 2)				59	612	3190
AGGGUACAUGAGGAUCACCCAUGUGGGUCGGUCGCAGGAUAUGCCCGUGGGCGCUGGCGGGCAGAAGGGUGCCGAA [Same State1-IX] (Eterna round: R96, puzzle: Same State 1)	81.4	187	341			
GUUAGGAAUCUAGCGAACAUGAGGAUCACCCAUGUUAGUGGGAAGGAUAUGGUACAGAAACUGUACCAGAAGGUCUUAUUGUUU [Omei SS(NG) 3 AV11] (Eterna round: R96, puzzle: Same State NG 3)		332				
AAAUAAAACACAGGAUAUGCAACCAAAACGGCGGCAGAAGGGUGAGACAUGAGGAUCACCCAUGUACACGUCCCACGGACGUGC [Arorraed] (Eterna round: R96, puzzle: Same State NG 1)	392	9.43	88.4			
UGUUGUAUUACAGGAUAUCUAUUGUUUUUAAUUAGAGAAGGGUAUUCACAUGAGGAUCACCCAUGUAUAUACGAGGAAGUUGUG [JMF's solution 81] (Eterna round: R96, puzzle: Same State NG 1)		37.6				
GUUACAUGAGGAUCACCCAUGUAUGUGUGGGAGUAAGUGUCUUAGGAUAUCUAUGAUAUAAUUUAAGAGAAGGAAGAUUGUUGU [JMF's solution 75] (Eterna round: R96, puzzle: Same State NG 3)	103	69.9	136			
GUGGUCAGACAUGAGGAUCACCCAUGUGGAAUAAAUAACACACAGGAUAUGUAAUAUAGGAUAUAACAGAAGGGUGGAUUGGUG (Eterna round: R96, puzzle: Same State NG 3)		297				
GCCACACAUGAGGAUCACCCAUGUAAUUACAUGGGAGGAUAUCAGUGCUCGAAAGAGCACUGAGAAGGCCUGUGGC [SS1 - Omei A v3] (puzzle: Same State 1)				134	89.6	67.8
GCCAACUUAUGAGGAUAUGGCACCUUAUUGGUGCCAGAAGGCAUGUCAAUUGACAUGAGGAUCACCCAUGUAUUAUAGUUGGCA [Fiskers NG1ss - 21] (Eterna round: R96, puzzle: Same State NG 1)		326				
AAGAAAGUUUACGAGGAUAUGUUCCGCAUAACAUGAGGAUCACCCAUGUGAACAAGAAAGGCGACGCAGAAGGCGUGAGCAAAAG [Mat - Same State 2 - Mod of UCT - D97] (puzzle: Same State 2)				105	199	412
AACAAUCUAUCUGAGGAUAUCAUGAAAAAAACAUGAGGAUCACCCAUGUGCAGGAAAACUGCAUAUGAGAAGGCAGAUAGAUUGG [salish99_SS2_r3_003] (puzzle: Same State 2)				23.2	589	814

Sequence	apparent KD of MS2 coat protein (input ligand: FMN 200 uM) [nM]	apparent KD of MS2 coat protein [1] [nM]	apparent KD of MS2 coat protein (input ligand: none) [nM]	apparent KD of MS2 coat protein [2] [nM]	apparent KD of MS2 coat protein [3] [nM]	apparent KD of MS2 coat protein [4] [nM]
GGAGCCGGCCUAGGAUAUUUCAUAUUAAAACAUGAGGAUCACCCAUGUAGGCCAGAAGGCCUUGGGAAGAAGGAGGUCGGCUCC [Loop Effect - U25,U26] (Eterna round: R96, puzzle: Same State NG 2)	15.2	50.7	87.8			
UAAAUAAUGAUAGGAUAUACAUGAGGAAUUCUCGUAGAAGGAUCAUGACAUGAGGAUCACCCAUGUAACGCUCGAAAGAGCGUA [Mat - Same State NG 1 - JL mod - D40] (Eterna round: R96, puzzle: Same State NG 1)	556	205	585			
GGAAACAAGAGAGGAUAUGCAGAGGAUCACCCUGCAGAAGGCUCCCUAGAGAGGAUAUGCAGAGGAUCACCCUGCAGAAGGCUC [pwkr ssNG DX.25] (Eterna round: R96, puzzle: Same State NG 1)	4.46	9.9	24.6			
CAUAAUAAAACGGAGGAUAUGCUACCCUUCACAUGAGGAUCACCCAUGUUACCCUCUUAUUUUCAGUAGAAGGCCGAUACAUAAC [Delilah] (puzzle: Same State 2)				38.1	31.9	38.9
GUGGUCAGACAUGAGGAUCACCCAUGUGGAAUAAAUAAGGAGAAGGAUAUGAAAUAUAGGAUAUAUCAGAAGGUCUGGUUGGUG (Eterna round: R96, puzzle: Same State NG 3)		59.9				
GUUACAUGAGGAUCACCCAUGUAUGUGUGGGAGUAAGUGUCUUAGGAUAUCUAUGAUUGAAUUUAAGAGAAGGAAGAUUGUUGU [JMF's solution 77] (Eterna round: R96, puzzle: Same State NG 3)	103	83.8	90.6			
GGGCCAGCUUGUGCUGGGCCUUCGCAUGCACAUGAGGAUCACCCAUGUCGUGUACAUGCUUUUUGCUCGUCUUUAAA [Photon Torp-11] (puzzle: Sensor for hsa-mir-208a)				39.6	14	40.8
GUGGUCAGACAUGAGGAUCACCCAUGUGGAAUAAAUAAGGAGAAGGAUAUCUAAUAUAGGAUAUAAGAGAAGGUUUGGUUGGUG (Eterna round: R96, puzzle: Same State NG 3)		63.2				
AGUCUACGGAAACGUAGACAGUGGAGCGUACAUGAGGAUCACCCAUGUCAUGUGAGAGCUACUUGUUCGUCUUGAGC [SENSOR #5] (puzzle: Sensor for hsa-mir-208a)				26.4	18.5	26.8
AGCUAUCGCGUACGAUAGCUGAAGCAUGUACAUGAGGAUCACCCAUGUCAUGUGCAGGCUUUUUGCUCGUCUUAUUG [JL-shm-2.30 JL mod] (puzzle: Sensor for hsa-mir-208a)				68.9	13.3	75.1
ACAAGCUUUUUGCUCAUCUUAUGUCCGAAACAUGAGGAUCACCCAUGUAUAGAUUAUGUGUUGUUGUAGAUACAAGA [JR_SHM208A_Sub063] (puzzle: Sensor for hsa-mir-208a)				22.7	19.6	28.3
CUGAGCGAUCAAGGAUAUCACGUCGAAUAGACGUGAGAAGGUGAUCCAUACAUGAGGAUCACCCAUGUAUAACAUGAAGCUCAG [SSNG1/8-A1] (Eterna round: R96, puzzle: Same State NG 1)	794	21.6	404			
CGUACACAUGAGGAUCACCCAUGUCAGAUUUGGUCAGGAUAUGGGCGGCAUCCGCUAUUGCCAGAAGGGACUGUUG [JR_SS001_Sub703] (Eterna round: R96, puzzle: Same State 1)	156	43.4	64.8			
ACAUGAGGAUCACCCAUGUAUGCUCAGGAAACUGUGCAGCAUUAGGAUAUGGAUCCUAAUUGGAUCCAGAAGGAGUGAAUUAUU [Fiskers NG3ss - 26] (Eterna round: R96, puzzle: Same State NG 3)	82.2	117	126			
GUUACAUGAGGAUCACCCAUGUAUGUGUGGGAGUAAGUGUCUUAGGAUAUCUAUGUUUUAAUUUAAGAGAAGGAAGAUUGUUGU [JMF's solution 71] (Eterna round: R96, puzzle: Same State NG 3)	102	102	115			
AUAAAACAUGAGGAUCACCCAUGUCUACAAAGUCGAGGAUAUGGGCAAAUAAAAUAAGAACCAGAAGGCGAAUAAU [salish99_ss1_r3_044] (puzzle: Same State 1)				62.6	223	275
